± gives the uncertainty stated by the source.
B1: Tumor protein 63, residues 545 to 610; numbered along this chain, Q9H3D4 (parent)
chain: TDCSIVSFLARLGCSSCLDYFTTQGLTTIYQIEHYSMDDLASLKIPEQFRHAIWKGILDHRQLHEF

Variants of: B1
Assay: abundance fitness (aPCA) (normalised: wild type 0, dead -1); higher = more abundant; growth selection in yeast, the domain comes from the species named
Conditions: Homo sapiens

Variant	abundance fitness
TDCSIVSFLARLGCSSCLDYFTTQGLTTIYQIEHYSMDDLASLKIPEQFPHAIWKGILDHRQLHEF	-0.848 ± 0.072
TDCSIVSFLARLGCSSCLDYFTTQGLTTIYQIEHYSMDDLASLKIPEQFCHAIWKGILDHRQLHEF	-0.052 ± 0.043
TDCSIVSFLARLGCSSCLDYFTTQGLTTIYQIEHYSMDDLASLKIPEQFWHAIWKGILDHRQLHEF	-0.128 ± 0.027
TDCSIVSFLARLGCSSCLDYFTTQGLTTIYQIEHYSMDDLASLKIPEQFLHAIWKGILDHRQLHEF	-0.036 ± 0.022
TDCSIVSFLARLGCSSCLDYFTTQGLTTIYQIEHYSMDDLASLKIPEQFSHAIWKGILDHRQLHEF	-0.102 ± 0.025
TDCSIVSFLARLGCSSCLDYFTTQGLTTIYQIEHYSMDDLASLKIPEQFAHAIWKGILDHRQLHEF	-0.092 ± 0.027
TDCSIVSFLARLGCSSCLDYFTTQGLTTIYQIEHYSMDDLASLKIPEQFTHAIWKGILDHRQLHEF	-0.056 ± 0.028
TDCSIVSFLARLGCSSCLDYFTTQGLTTIYQIEHYSMDDLASLKIPEQFRKAIWKGILDHRQLHEF	-0.012 ± 0.031
TDCSIVSFLARLGCSSCLDYFTTQGLTTIYQIEHYSMDDLASLKIPEQFRWAIWKGILDHRQLHEF	-0.058 ± 0.025
TDCSIVSFLARLGCSSCLDYFTTQGLTTIYQIEHYSMDDLASLKIPEQFRVAIWKGILDHRQLHEF	-0.034 ± 0.022
TDCSIVSFLARLGCSSCLDYFTTQGLTTIYQIEHYSMDDLASLKIPEQFRGAIWKGILDHRQLHEF	-0.023 ± 0.02
TDCSIVSFLARLGCSSCLDYFTTQGLTTIYQIEHYSMDDLASLKIPEQFRRAIWKGILDHRQLHEF	-0.031 ± 0.018
TDCSIVSFLARLGCSSCLDYFTTQGLTTIYQIEHYSMDDLASLKIPEQFRQAIWKGILDHRQLHEF	0.005 ± 0.035
TDCSIVSFLARLGCSSCLDYFTTQGLTTIYQIEHYSMDDLASLKIPEQFRMAIWKGILDHRQLHEF	-0.009 ± 0.027
TDCSIVSFLARLGCSSCLDYFTTQGLTTIYQIEHYSMDDLASLKIPEQFRLAIWKGILDHRQLHEF	-0.029 ± 0.024
TDCSIVSFLARLGCSSCLDYFTTQGLTTIYQIEHYSMDDLASLKIPEQFRAAIWKGILDHRQLHEF	-0.022 ± 0.025
TDCSIVSFLARLGCSSCLDYFTTQGLTTIYQIEHYSMDDLASLKIPEQFRDAIWKGILDHRQLHEF	-0.028 ± 0.036
TDCSIVSFLARLGCSSCLDYFTTQGLTTIYQIEHYSMDDLASLKIPEQFRYAIWKGILDHRQLHEF	-0.075 ± 0.045
TDCSIVSFLARLGCSSCLDYFTTQGLTTIYQIEHYSMDDLASLKIPEQFRIAIWKGILDHRQLHEF	-0.079 ± 0.041
TDCSIVSFLARLGCSSCLDYFTTQGLTTIYQIEHYSMDDLASLKIPEQFRFAIWKGILDHRQLHEF	-0.052 ± 0.044
TDCSIVSFLARLGCSSCLDYFTTQGLTTIYQIEHYSMDDLASLKIPEQFRSAIWKGILDHRQLHEF	0.013 ± 0.02

Variant	abundance fitness
TDCSIVSFLARLGCSSCLDYFTTQGLTTIYQIEHYSMDDLASLKIPEQFRCAIWKGILDHRQLHEF	-0.034 ± 0.029
TDCSIVSFLARLGCSSCLDYFTTQGLTTIYQIEHYSMDDLASLKIPEQFREAIWKGILDHRQLHEF	0.005 ± 0.038
TDCSIVSFLARLGCSSCLDYFTTQGLTTIYQIEHYSMDDLASLKIPEQFRPAIWKGILDHRQLHEF	-0.031 ± 0.033
TDCSIVSFLARLGCSSCLDYFTTQGLTTIYQIEHYSMDDLASLKIPEQFRTAIWKGILDHRQLHEF	0.003 ± 0.026
TDCSIVSFLARLGCSSCLDYFTTQGLTTIYQIEHYSMDDLASLKIPEQIRHAIWKGILDHRQLHEF	-0.168 ± 0.035
TDCSIVSFLARLGCSSCLDYFTTQGLTTIYQIEHYSMDDLASLKIPEQNRHAIWKGILDHRQLHEF	-0.058 ± 0.037
TDCSIVSFLARLGCSSCLDYFTTQGLTTIYQIEHYSMDDLASLKIPEQMRHAIWKGILDHRQLHEF	-0.014 ± 0.05
TDCSIVSFLARLGCSSCLDYFTTQGLTTIYQIEHYSMDDLASLKIPEQLRHAIWKGILDHRQLHEF	-0.059 ± 0.025
TDCSIVSFLARLGCSSCLDYFTTQGLTTIYQIEHYSMDDLASLKIPEQVRHAIWKGILDHRQLHEF	-0.113 ± 0.021
TDCSIVSFLARLGCSSCLDYFTTQGLTTIYQIEHYSMDDLASLKIPEQGRHAIWKGILDHRQLHEF	-0.174 ± 0.027
TDCSIVSFLARLGCSSCLDYFTTQGLTTIYQIEHYSMDDLASLKIPEQSRHAIWKGILDHRQLHEF	-0.026 ± 0.026
TDCSIVSFLARLGCSSCLDYFTTQGLTTIYQIEHYSMDDLASLKIPEQHRHAIWKGILDHRQLHEF	-0.004 ± 0.042
TDCSIVSFLARLGCSSCLDYFTTQGLTTIYQIEHYSMDDLASLKIPEQDRHAIWKGILDHRQLHEF	-0.021 ± 0.035
TDCSIVSFLARLGCSSCLDYFTTQGLTTIYQIEHYSMDDLASLKIPEQCRHAIWKGILDHRQLHEF	-0.047 ± 0.031
TDCSIVSFLARLGCSSCLDYFTTQGLTTIYQIEHYSMDDLASLKIPEQKRHAIWKGILDHRQLHEF	-0.027 ± 0.047
TDCSIVSFLARLGCSSCLDYFTTQGLTTIYQIEHYSMDDLASLKIPEQWRHAIWKGILDHRQLHEF	-0.052 ± 0.036
TDCSIVSFLARLGCSSCLDYFTTQGLTTIYQIEHYSMDDLASLKIPEQPRHAIWKGILDHRQLHEF	-0.061 ± 0.033
TDCSIVSFLARLGCSSCLDYFTTQGLTTIYQIEHYSMDDLASLKIPEQTRHAIWKGILDHRQLHEF	-0.127 ± 0.026
TDCSIVSFLARLGCSSCLDYFTTQGLTTIYQIEHYSMDDLASLKIPEQERHAIWKGILDHRQLHEF	-0.007 ± 0.036
TDCSIVSFLARLGCSSCLDYFTTQGLTTIYQIEHYSMDDLASLKIPEQQRHAIWKGILDHRQLHEF	-0.023 ± 0.028

Reference: the Human Domainome abundance scans (Beltran et al. 2025)
